Laboratory results as given in patent publication US20200199241A1 (Chugai, published 2020).
Read-outs that look alike come from different tables or passages of the source.

Tests used:
mouse FcγRIII [1] = target: T1, mouse FcγRIII (mouse, UniProt P08508 31-215); experiment: SPR, antibody captured by Protein L, mouse FcγR as analyte, pH 7.4, 25 C
T1 construct: bought; also called mFcgRIII; mFcgR III
T1 sequence (looked up): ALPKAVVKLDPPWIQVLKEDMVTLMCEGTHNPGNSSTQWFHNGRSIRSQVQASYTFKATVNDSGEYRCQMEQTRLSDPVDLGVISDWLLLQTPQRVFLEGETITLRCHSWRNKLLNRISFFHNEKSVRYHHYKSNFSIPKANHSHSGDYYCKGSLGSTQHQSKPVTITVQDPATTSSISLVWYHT

mouse FcγRIV [2] = target: T2, mouse FcγRIV (mouse, UniProt A0A0B4J1G0 21-203); experiment: as above
T2 construct: bought; also called mFcgRIV; mFcgR IV; the vendor's purification tag not given
T2 sequence: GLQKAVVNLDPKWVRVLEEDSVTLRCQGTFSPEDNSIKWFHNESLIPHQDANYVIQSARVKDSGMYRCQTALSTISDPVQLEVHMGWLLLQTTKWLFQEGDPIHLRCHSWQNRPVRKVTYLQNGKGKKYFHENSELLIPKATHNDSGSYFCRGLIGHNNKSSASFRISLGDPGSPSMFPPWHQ

mouse FcγRI [3] = target: T3, mouse FcγRI (mouse, UniProt P26151 25-297); experiment: as above
T3 construct: bought; also called mFcgRI; mFcgR 1
T3 sequence (looked up): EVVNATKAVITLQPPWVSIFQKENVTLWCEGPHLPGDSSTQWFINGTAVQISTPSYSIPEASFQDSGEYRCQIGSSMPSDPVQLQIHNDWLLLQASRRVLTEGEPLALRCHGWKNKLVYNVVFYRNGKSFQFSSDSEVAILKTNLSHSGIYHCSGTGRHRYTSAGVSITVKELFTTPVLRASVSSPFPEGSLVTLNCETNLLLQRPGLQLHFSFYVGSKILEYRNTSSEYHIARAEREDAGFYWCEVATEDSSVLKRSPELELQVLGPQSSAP

mouse FcγRIIb [4] = target: T4, mouse FcγRIIb (mouse, UniProt P08101 30-207, limits assumed); experiment: as above
T4 construct: bought; also called mFcgRIIb; mFcgR IIb
T4 sequence (looked up): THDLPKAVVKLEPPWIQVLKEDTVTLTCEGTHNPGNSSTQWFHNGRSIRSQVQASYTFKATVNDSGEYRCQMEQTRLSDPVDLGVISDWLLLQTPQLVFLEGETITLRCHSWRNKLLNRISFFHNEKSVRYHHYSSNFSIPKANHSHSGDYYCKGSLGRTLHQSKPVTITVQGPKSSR

mouse FcγRIII [5] = target: T1, mouse FcγRIII; experiment: as above; design: unit not given here
mouse FcγRIV [6] = target: T2, mouse FcγRIV; experiment: as above; design: unit not given here
mouse FcγRI [7] = target: T3, mouse FcγRI; experiment: as above; design: unit not given here
mouse FcγRIIb [8] = target: T4, mouse FcγRIIb; experiment: as above; design: unit not given here
human FcγRIIb = target: T5, human FcγRIIb (human, UniProt P31994 43-217, limits assumed); experiment: SPR, antibody captured by Protein L, human FcγR as analyte, pH 7.4, 25 C;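 further: biacore T100 or T200 with Protein L amine-coupled on a CM4 chip, FcγRs diluted in ACES saline with polysorbate 20, buffer-only injection as blank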
T5 construct: also called hFcgRIIb; FcγIIB
T5 sequence: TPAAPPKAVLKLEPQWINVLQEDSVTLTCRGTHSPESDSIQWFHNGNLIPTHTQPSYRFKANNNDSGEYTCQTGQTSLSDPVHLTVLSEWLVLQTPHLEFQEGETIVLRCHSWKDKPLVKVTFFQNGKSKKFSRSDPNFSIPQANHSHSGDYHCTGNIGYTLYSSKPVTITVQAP

human FcγRIIa(R) = target: T6, human FcγRIIa(R) (human, UniProt P12318 36-217); experiment: as above
T6 construct: also called hFcgRIIa(R); FcγRIIa type R
T6 chain: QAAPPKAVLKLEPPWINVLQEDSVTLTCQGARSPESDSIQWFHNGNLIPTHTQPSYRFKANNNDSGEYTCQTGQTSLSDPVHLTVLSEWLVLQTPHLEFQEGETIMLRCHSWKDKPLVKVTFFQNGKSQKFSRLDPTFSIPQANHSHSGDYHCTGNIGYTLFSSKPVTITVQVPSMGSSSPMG

human FcγRIa = target: T7, human FcγRIa (human, UniProt P12314 16-292, limits assumed); experiment: as above
T7 construct: also called hFcgRIa; hFcgRI
T7 sequence (P12314 16-292 limits assumed): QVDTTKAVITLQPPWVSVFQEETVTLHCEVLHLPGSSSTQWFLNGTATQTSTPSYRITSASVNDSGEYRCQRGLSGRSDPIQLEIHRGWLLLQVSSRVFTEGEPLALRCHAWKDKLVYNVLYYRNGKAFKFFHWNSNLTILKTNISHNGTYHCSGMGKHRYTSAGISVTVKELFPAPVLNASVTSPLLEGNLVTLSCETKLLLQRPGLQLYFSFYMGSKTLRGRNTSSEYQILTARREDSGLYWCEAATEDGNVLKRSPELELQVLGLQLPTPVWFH

human FcγRIIa(H) = target: T8, human FcγRIIa(H) (human, UniProt P12318 36-217); experiment: as above
T8 construct: also called hFcgRIIa(H); FcγRIIa type H
T8 sequence: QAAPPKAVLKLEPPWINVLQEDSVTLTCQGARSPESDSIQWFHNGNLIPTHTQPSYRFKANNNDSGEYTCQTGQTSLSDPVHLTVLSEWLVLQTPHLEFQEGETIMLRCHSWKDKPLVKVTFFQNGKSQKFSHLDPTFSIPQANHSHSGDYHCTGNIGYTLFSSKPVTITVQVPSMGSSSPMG

human FcγRIIIa(V) = target: T9, human FcγRIIIa(V) (human, UniProt P08637 17-208, limits assumed); experiment: as above
T9 construct: also called hFcgRIIIa(V); allotype V158
T9 sequence (P08637 other isoform, or with tags, fused parts or gaps limits assumed): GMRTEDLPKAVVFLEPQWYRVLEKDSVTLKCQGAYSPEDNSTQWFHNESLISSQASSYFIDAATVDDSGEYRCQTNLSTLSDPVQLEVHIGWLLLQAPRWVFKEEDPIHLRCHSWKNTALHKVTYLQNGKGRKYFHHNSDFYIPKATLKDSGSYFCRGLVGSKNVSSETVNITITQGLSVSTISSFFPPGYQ

[9] = target: T10, human FcRn (soluble human FcRn complexed with β2-microglobulin) (human, UniProt P61769 21-119, limits assumed); experiment: SPR, antibody captured by Protein L, human FcRn as analyte, pH 7.0, 25 C
T10 construct: also called hFcRn
T10 sequence (chain, as listed by the source limits assumed, chain 1 of 2): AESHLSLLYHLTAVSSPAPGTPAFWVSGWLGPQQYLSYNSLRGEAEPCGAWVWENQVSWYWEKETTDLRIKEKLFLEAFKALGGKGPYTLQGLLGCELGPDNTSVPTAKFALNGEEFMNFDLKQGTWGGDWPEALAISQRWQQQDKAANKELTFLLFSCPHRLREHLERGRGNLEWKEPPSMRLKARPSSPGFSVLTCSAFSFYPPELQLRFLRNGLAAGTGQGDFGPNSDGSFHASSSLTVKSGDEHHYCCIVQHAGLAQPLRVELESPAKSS
T10 sequence (P61769 21-119 limits assumed, chain 2 of 2): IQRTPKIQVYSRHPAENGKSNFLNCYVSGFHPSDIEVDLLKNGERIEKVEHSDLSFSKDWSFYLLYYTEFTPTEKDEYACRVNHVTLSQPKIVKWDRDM

[10] = target: T10, human FcRn (soluble human FcRn …); experiment: as above; remark: listed apart in the source
[11] = target: T10, human FcRn (soluble human FcRn …); experiment: as above; remark: listed apart in the source

B1: antibody with VH3-IgG1-F947 heavy chain and L(WT)-CK light chain (antibody)
heavy: QVQLQESGPGLVKPSETLSLTCAVSGHSISHDHAWSWVRQPPGEGLEWIGFISYSGITNYNPSLQGRVTISRDNSKNTLYLQMNSLRAEDTAVYYCARSLARTTAMDYWGEGTLVTVSSASTKGPSVFPLAPSSKSTSGGTAALGCLVKDYFPEPVTVSWNSGALTSGVHTFPAVLQSSGLYSLSSVVTVPSSSLGTQTYICNVNHKPSNTKVDKKVEPKSCDKTHTCPPCPAPELLGGPSVFLFPPKPKDVLYISRTPEVTCVVVDVSHEDPEVKFNWYVDGVEVHNAKTKPREEQYNSTYRVVSVLQPLHADWLNGKEYKCKVSNKALPAPIEKTISKAKGQPREPQVYTLPPSRDELTKNQVSLTCLVKGFYPSDIAVEWESNGQPENNYKTTPPVLDSDGSFFLYSKLTVDKSRWQQGNVFSCSVMHEALHYHVTQKSLSLSP
light: not shown
notes: T250V/M252Y/T307Q/V308P/Q311A/N434Y/Y436V; copies: 2 + 2
B1 was tested, and the “BINDING AMOUNT (RU)” value (mouse FcγRIII [1]) was 382 RU, the “BINDING AMOUNT (RU)” value (mouse FcγRIV [2]) was 242 RU and the “BINDING AMOUNT (RU)” value (mouse FcγRI [3]) was 299 RU. For the same binder, the “BINDING AMOUNT (RU)” value (mouse FcγRIIb [4]) was 117 RU, the “binding amount” value (mouse FcγRIII [5]) was 664 and the “binding amount” value (mouse FcγRIV [6]) was 279. For the same binder, the “binding amount” value (mouse FcγRI [7]) was 329, the “binding amount” value (mouse FcγRIIb [8]) was 129 and the “BINDING AMOUNT (RU)” value (human FcγRIIb) was 70.6 RU. The “BINDING AMOUNT (RU)” value (human FcγRIIa(R)) was 148 RU, the “BINDING AMOUNT (RU)” value (human FcγRIa) was 368 RU and the “BINDING AMOUNT (RU)” value (human FcγRIIa(H)) was 154 RU. For the same binder, the “BINDING AMOUNT (RU)” value (human FcγRIIIa(V)) was 221 RU, the Kd [9] was 11 nM and the Kd [10] was 11 nM. It also gave a Kd [11] of 11 nM.
